Reference: patent publication US20110177504A1

Target: murine LY6C polypeptide on YAMC cells (murine) (UniProt P0CW02)
Experiment: cell-based or functional assay

UniProt P0CW02, sequence (P0CW02 27-109 limits assumed): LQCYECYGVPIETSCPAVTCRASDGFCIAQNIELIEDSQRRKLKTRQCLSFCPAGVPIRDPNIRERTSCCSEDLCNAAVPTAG

What does the source list for “Anti-LY6C (clone HK1.4), Southern Biotech (antibody)”?
CCL2 mRNA, quantitative RT-PCR, YAMC cells on plate-bound antibody 24 h, IFN pre-treatment: 16.1 fold change; CCL2 mRNA, quantitative RT-PCR, YAMC cells on plate-bound antibody 24 h, Media pre-treatment: 8.81 fold change; CCL4 mRNA, quantitative RT-PCR, YAMC cells on plate-bound antibody 24 h, IFN pre-treatment: 16.1 fold change; CCL4 mRNA, quantitative RT-PCR, YAMC cells on plate-bound antibody 24 h, Media pre-treatment: 3.15 fold change; CCL5 mRNA, quantitative RT-PCR, YAMC cells on plate-bound antibody 24 h, IFN pre-treatment: 10.1 fold change; CCL5 mRNA, quantitative RT-PCR, YAMC cells on plate-bound antibody 24 h, Media pre-treatment: 3.31 fold change; CCL7 mRNA, quantitative RT-PCR, YAMC cells on plate-bound antibody 24 h, IFN pre-treatment: 5.81 fold change; CCL7 mRNA, quantitative RT-PCR, YAMC cells on plate-bound antibody 24 h, Media pre-treatment: 3.37 fold change; CCL8 mRNA, quantitative RT-PCR, YAMC cells on plate-bound antibody 24 h, IFN pre-treatment: 110 fold change; CCL8 mRNA, quantitative RT-PCR, YAMC cells on plate-bound antibody 24 h, Media pre-treatment: 12.8 fold change; CCL25 mRNA, quantitative RT-PCR, YAMC cells on plate-bound antibody 24 h, IFN pre-treatment: 1.46 fold change; CCL25 mRNA, quantitative RT-PCR, YAMC cells on plate-bound antibody 24 h, Media pre-treatment: 1.16 fold change; CXCL1 mRNA, quantitative RT-PCR, YAMC cells on plate-bound antibody 24 h, IFN pre-treatment: 13.4 fold change; CXCL1 mRNA, quantitative RT-PCR, YAMC cells on plate-bound antibody 24 h, Media pre-treatment: 11.6 fold change; CXCL2 mRNA, quantitative RT-PCR, YAMC cells on plate-bound antibody 24 h, IFN pre-treatment: 113 fold change; CXCL2 mRNA, quantitative RT-PCR, YAMC cells on plate-bound antibody 24 h, Media pre-treatment: 21.8 fold change; CXCL5 mRNA, quantitative RT-PCR, YAMC cells on plate-bound antibody 24 h, IFN pre-treatment: 151 fold change; CXCL5 mRNA, quantitative RT-PCR, YAMC cells on plate-bound antibody 24 h, Media pre-treatment: 118 fold change; CXCL10 mRNA, quantitative RT-PCR, YAMC cells on plate-bound antibody 24 h, IFN pre-treatment: 12.2 fold change; CXCL10 mRNA, quantitative RT-PCR, YAMC cells on plate-bound antibody 24 h, Media pre-treatment: 5.11 fold change; CXCL12 mRNA, quantitative RT-PCR, YAMC cells on plate-bound antibody 24 h, IFN pre-treatment: -3.02 fold change; CXCL12 mRNA, quantitative RT-PCR, YAMC cells on plate-bound antibody 24 h, Media pre-treatment: -1.99 fold change; lowest coating concentration of antibody giving detectable CXCL5 secretion, ELISA: 1 µg/mL
